Assay results as given in US20150191730A1, “APTAMER-TARGETTED ANTIGEN DELIVERY” (ALBERT EINSTEIN COLLEGE OF MEDICINE OF YESHIVA UNIVERSITY, published 2015).
One block for each molecule: values may come before it.

Experiments:
mouse DEC205 (mouse) = mouse DEC205 (mouse) (UniProt Q60767); experiment: cell-based or functional assay
[1] = target: DEC205 (CD205, LY75), mouse, surface-expressed (Mus musculus, UniProt Q60767 Q60767:28-1723); experiment: flow; apparent; A20.Kb/mDEC205 cells; RPMI + 1 mg/mL ssDNA, 37 C, 15 min; one-site fit; conditions: tags: full-length, stably expressed on CHO (CHO/mDEC205) or A20.Kb/mDEC205 cells; label: Alexa Fluor 488 (5'); Mfold-predicted stem-loop with conserved UUCAUAA
Method: The minimized aptamer, min.2 (FIG. 3a), was chemically synthesized bearing a 3′ inverted dT for added serum stability and a 5′ thiol to facilitate subsequent chemical conjugations. When labeled with Alexa Fluor 488, this chemically synthesized aptamer performed as well as constructs produced by transcription (data not shown). Direct labeling of min.2 also allowed us to measure the apparent dissociation constant of this aptamer for cell-surface mDEC205 on A20 cells (23±6 nM; FIG. 3b). The specificity of Clone 1 and high affinity of its minimized form, min.2, constitute a promising basis for using this aptamer for targeted antigen delivery.
mDEC205 Cell Surface Binding Assay: A20.Kb cells or A20.Kb.mDEC205 cells which are engineered to express higher amounts of mDEC205 were washed with RPMI, resuspended at 1×10⁵ cells in 100 μL RPMI supplemented with 1 mg/mL ssDNA, and stored on ice while Alexa Fluor 488-conjugated min.2 and Alexa Fluor 488-conjugated cntrl.36 were prepared as described previously. After addition of refolded RNA to cells, the RNA-cell mixture was incubated for 15 minutes at 37° C., washed with and resuspended in flow cytometry buffer, and analyzed by flow cytometry. […]

Chain of DEC205 (CD205, LY75), mouse, surface-expressed (Q60767 28-1723, one chain of several): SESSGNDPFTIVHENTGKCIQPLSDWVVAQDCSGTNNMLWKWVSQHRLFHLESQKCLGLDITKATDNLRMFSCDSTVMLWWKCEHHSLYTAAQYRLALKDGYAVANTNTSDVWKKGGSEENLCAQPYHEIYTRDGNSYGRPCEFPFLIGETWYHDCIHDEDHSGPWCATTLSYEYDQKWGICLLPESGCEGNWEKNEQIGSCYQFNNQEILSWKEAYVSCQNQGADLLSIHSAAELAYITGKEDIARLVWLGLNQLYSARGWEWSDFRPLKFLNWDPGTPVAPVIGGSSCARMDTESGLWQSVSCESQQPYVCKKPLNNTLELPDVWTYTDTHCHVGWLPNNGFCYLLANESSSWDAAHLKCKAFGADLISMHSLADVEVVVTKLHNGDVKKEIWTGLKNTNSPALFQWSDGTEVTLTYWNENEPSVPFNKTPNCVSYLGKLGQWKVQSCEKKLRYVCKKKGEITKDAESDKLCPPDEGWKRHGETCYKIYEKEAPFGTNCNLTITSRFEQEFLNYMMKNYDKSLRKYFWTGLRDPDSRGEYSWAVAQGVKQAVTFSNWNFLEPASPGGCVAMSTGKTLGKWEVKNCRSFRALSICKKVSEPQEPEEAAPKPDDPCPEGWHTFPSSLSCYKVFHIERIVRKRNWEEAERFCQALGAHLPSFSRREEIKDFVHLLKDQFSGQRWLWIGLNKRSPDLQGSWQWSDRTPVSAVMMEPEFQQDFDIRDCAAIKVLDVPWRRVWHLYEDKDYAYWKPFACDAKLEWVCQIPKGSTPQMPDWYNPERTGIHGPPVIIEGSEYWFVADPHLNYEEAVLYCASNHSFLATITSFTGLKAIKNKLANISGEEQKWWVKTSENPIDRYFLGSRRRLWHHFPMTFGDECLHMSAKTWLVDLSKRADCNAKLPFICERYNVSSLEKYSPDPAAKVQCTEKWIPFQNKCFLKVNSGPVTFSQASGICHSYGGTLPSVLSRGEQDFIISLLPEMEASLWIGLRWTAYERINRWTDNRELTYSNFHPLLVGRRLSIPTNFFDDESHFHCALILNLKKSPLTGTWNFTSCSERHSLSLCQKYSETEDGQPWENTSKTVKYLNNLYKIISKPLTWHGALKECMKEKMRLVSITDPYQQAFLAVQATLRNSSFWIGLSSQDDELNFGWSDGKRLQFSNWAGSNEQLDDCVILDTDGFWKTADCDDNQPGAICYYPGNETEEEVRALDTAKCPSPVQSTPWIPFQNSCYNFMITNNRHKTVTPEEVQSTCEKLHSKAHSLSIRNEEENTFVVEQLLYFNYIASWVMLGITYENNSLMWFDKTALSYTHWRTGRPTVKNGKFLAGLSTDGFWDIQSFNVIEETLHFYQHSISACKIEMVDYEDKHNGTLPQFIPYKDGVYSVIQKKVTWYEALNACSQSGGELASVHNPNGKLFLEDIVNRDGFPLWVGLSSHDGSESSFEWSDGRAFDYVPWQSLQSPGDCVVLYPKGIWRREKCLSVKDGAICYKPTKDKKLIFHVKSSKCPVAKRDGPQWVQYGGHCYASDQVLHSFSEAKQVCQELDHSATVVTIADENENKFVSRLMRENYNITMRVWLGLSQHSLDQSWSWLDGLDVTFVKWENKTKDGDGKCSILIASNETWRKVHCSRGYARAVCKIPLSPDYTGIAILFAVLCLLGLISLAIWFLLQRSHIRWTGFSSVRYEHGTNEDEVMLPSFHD
Chain of mouse DEC205 (mouse) (Q60767 28-1723): as the sequence (Q60767 28-1723, one chain of several) above

- OT-I cell proliferation (CFSE dilution) after two days with antigen-treated CD11c+ splenocytes (mouse DEC205 (mouse)): > 80%
Molecule: NLDC145:OVA, recombinant fusion of OVA and anti-mDEC205 antibody clone NLDC145

B1: min.2 (ssRNA)
RNA: GGGAGGUGUGUUAGCACACGAUUCAUAAUCAGCUACCCUCCC
modifications: 2'-F pyrimidines; 3' idT; 5' thiol C6
- Kd [1]: 23 nM
